According to publication PMC3481545:

What was measured:
Experiment in all cases: SPR
BMP-7 = BMP-7 (UniProt P18075)
Activin = Activin (UniProt P08476)
GDF-5 = GDF-5 (UniProt P43026)
GDF-5, sequence (P43026 382-501): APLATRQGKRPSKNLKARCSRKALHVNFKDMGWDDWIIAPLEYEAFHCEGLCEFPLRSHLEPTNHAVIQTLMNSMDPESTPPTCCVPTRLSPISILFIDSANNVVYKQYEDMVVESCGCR

BMP-7, sequence (P18075 293-431): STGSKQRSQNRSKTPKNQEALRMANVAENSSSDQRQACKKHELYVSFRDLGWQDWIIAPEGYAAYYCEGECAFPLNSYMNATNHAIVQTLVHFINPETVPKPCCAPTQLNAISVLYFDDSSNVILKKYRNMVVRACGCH

Row | Substance | Kd (BMP-7) [µM] | Kd (Activin) [µM] | Kd (GDF-5) [µM]
1 | BΔB: BMPR-II ECD with its A-loop deleted (from UniProt Q13873 26-150) (domain or fragment) | 27 | 94 | > 1300
2 | AΔA: ActR-IIB ECD with its A-loop deleted (domain or fragment) | 30 | > 1300 | > 1300
3 | human recombinant ActR-IIB ECD, wild type (from UniProt Q13705 19-134) (domain or fragment) | 16 | – | > 1300
